Square brackets hold non-standard residues; d marks the D form. Ends that are not written are not given here. * marks the point of attachment. K(5-FAM) = lysine labeled with 5-carboxyfluorescein (5-FAM), C-terminal, O=C(NCCCC[C@H](N*)C(=O)O)c1ccc2c(c1)C(=O)OC21c2ccc(O)cc2Oc2cc(O)ccc21; Arg(Me2s) = CN=C(NC)NCCC[C@H](N)C(=O)O
B1: unmethylated D2 peptide (amino acids 208-243 of the third intracellular loop of the human D2 receptor) (peptide)
peptide: VYIKIYIVLRRRRKRVNTKRSSRAFRAHLRAPLKGN-{K(5-FAM)}
notes: D2 dopamine receptor, human, amino acids 208-243 of the third intracellular loop; The C-terminal fluorophore is carried on an added lysine (K-5-FAM) after residue 243; source: synthetic peptide (21st Century Biochemicals); not shown: FLAG, N-terminal, kept
B2: methylated D2 peptide (amino acids 208-243 of the human D2 receptor, symmetrically dimethylated at Arg 217 and Arg 219) (peptide)
peptide: VYIKIYIVL[Arg(Me2s)]R[Arg(Me2s)]RKRVNTKRSSRAFRAHLRAPLKGN-{K(5-FAM)}
notes: D2 dopamine receptor, human, amino acids 208-243 of the third intracellular loop; Same peptide as m1 but with symmetric dimethylarginine at 217 and 219; The C-terminal fluorophore is carried on an added lysine (K-5-FAM); source: synthetic peptide (21st Century Biochemicals); not shown: FLAG, N-terminal, kept

Target: T1, human calmodulin (human, UniProt P0DP23 1-149)
T1 construct: Calmodulin, human; in pET-17b; Purification adapted from McCluskey et al. 2007; also called CaM; His-Calmodulin; source: Rosetta E. coli, purified (Ni-NTA, Phenyl-sepharose)
Test: fluorescence polarisation; anisotropy; fluorescently labelled D2 peptide at 0.025 µM final, Par-4 or CaM added from 10x stocks of 0-20 µM; 200 mM NaCl, 200 µM CaCl2, 50 mM Tris pH 7.5; room temperature, ten minutes; average of four trials
Conditions: both partners purified

| Binder | Kd |
| --- | --- |
| B1 | 57.5 nM |
| B2 | 136 nM |
